# Laboratory results taken from publication PMC10221132, “DA7R: A 7-Letter Zip Code to Target PDAC” (Pharmaceutics, 2023).
# Where a SMILES comes first, the peptide text is derived from it.
# Experiments:
# [1] = Blood stability: hydrolysis of PAPTPL-peptide derivatives in mouse blood; type: in vitro ADME; conditions: heparinized mouse whole blood, 5 µM from 5 mM DMSO stock, 37 °C, 4 h, UHPLC/UV 312 nm, mean of n = 3
# Description: Procedures involving animals were approved by the University of Padova Ethical Committee for Animal Welfare (OPBA) and by the Italian Ministry of Health (Permit Number 846/2021-PR), and conducted with the supervision of the Central Veterinary Service of the University of Padova, in compliance with Italian Law DL 26/2014, embodying UE Directive 2010/63/EU. Mice were anesthetized and blood was withdrawn from the jugular vein and heparinized. Blood samples (1 mL) were spiked with compound (5 µM; dilution from a 5 mM stock solution in DMSO) and incubated at 37 °C for 4 h (the maximum period allowed by blood stability). Aliquots (100 µL) were taken after 10 min, 30 min, 1 h, 2 h, and 4 h, kept on ice, and treated as follows: blood was mixed with 5 volumes of 0.1%TFA in CH3CN, mixed and sonicated for 2 min, and finally centrifuged for 7 min at 12,000× g; the supernatant was collected and analyzed by UHPLC. Quantitative analyses were carried out by UHPLC (1290 Infinity LC System, Agilent Technologies, Milan, Italy) using a reversed-phase column (Zorbax RRHT Extend C18, 1.8 µm, 50 × 3.0 mm, Agilent Technologies) and a UV diode array detector (190–500 nm), at a flow rate of 0.6 mL/min. Solvents A and B were 0.1% TFA in water and CH3CN, respectively. The gradient for B was as follows: 10% for 1 min, then from 10 to 100% in 8.0 min, 100% for 0.5 min, then from 100% to 10% in 1.5 min. The injection volume was 5 µL. The eluate was preferentially monitored at 312 nm (corresponding to an absorbance maximum of psoralenic compounds). The temperature of the column was kept at 25 °C. Concentration of PAPTPL or its derivatives was determined using the following calibration curve, which correlates peak area at 312 nm (y) with compound concentration in the sample (x): y = 6.3321x. The stability in blood was expressed as % of PAPTPL released relative to the amount of the derivative initially spiked in the sample.
# erythrocytes = experiment: Hemolysis assay; type: cell-based; conditions: 5 × 10^7 erythrocytes in 1 mL PBS pH 7.4; 1, 0.5, 0.25 or 0.125 nmoles/10^7 cells; 15 min; Abs 540 nm; relative to Triton X-100 1%; n = 3
# Description: Hemolysis studies were conducted as described in [48]. Briefly, freshly withdrawn blood samples were centrifuged at 2000× g for 10 min to obtain erythrocytes; the pellet was then washed three times with sterile PBS (pH 7.4). Erythrocytes (5 × 10^7 cells in 1 mL of PBS for each experimental condition) were incubated with the tested compounds at the concentrations of 1, 0.5, 0.25, or 0.125 nmoles/10^7 cells for 15 min. The samples were then centrifuged and the absorbance (Abs) of the supernatant was measured at 540 nm. Triton X-100 1% and PBS were used as positive and negative control, respectively. The percentage of hemolysis was calculated with the following equation:% hemolysis = [(Abssample − AbsPBS)/(AbsTriton X-100 − AbsPBS)] × 100
# HPAFII cells = experiment: Cell uptake of PAPTPL-I-DA7R (HPLC/UV); type: cell-based, human; conditions: 5 µM, 15 min, 37 °C, DMEM without Phenol Red and serum, nmoles/mg total protein, n ≥ 9
# Description: HPAFII and Pan02 cells were seeded in 6-well plates at a density of 300,000 and 150,000 cells/well, respectively, and grown for 48 h. They were then washed twice with PBS and incubated for 15 min at 37 °C with a solution of 5 µM PAPTPL-I-DA7R in DMEM without Phenol Red and serum. At the end of the incubation, cells were washed twice, 100 µL of PBS were added, and finally the cells were scraped and collected. A volume of 100 µL of CH3CN + 0.1%TFA was added, and the mixture was vortexed and sonicated for 5 min. Samples were finally centrifuged for 5 min at 12,000× g, and the supernatant was collected and the amount of PAPTPL-I-DA7R was quantified by HPLC/UV, as described in Section 2.5 (blood stability). The remaining cell pellets were resuspended in 200 µL of SDS 2%, and the total protein amount of each sample was quantified with the BCA assay. Cell uptake of PAPTPL-I-DA7R was expressed as nmoles of PAPTPL-I-DA7R/total protein.
# NRP-1 = conditions: surface plasmon resonance; cited from earlier work
# Text: (§1) A7R peptide binds to both neuropilin-1 (NRP-1) and vascular endothelial growth factor receptor-2 (VEGFR2/KDR), disrupting their receptor/coreceptor interaction, and impacting, therefore, on angiogenesis and tumor growth. […] Binding of A7R to NRP-1, on the other hand, mainly involves interactions of Arg with the ...
# VEGFR2 = conditions: surface plasmon resonance; cited from earlier work
# Text: as §1
Structure (SMILES),% of conjugate hydrolyzed (PAPTPL released relative to derivative initially spiked) [1],Hemolysis (erythrocytes),Uptake by HPAFII cells relative to cultured Pan02 cells (HPAFII cells),Affinity for NRP-1 (NRP-1),Affinity for VEGFR2 (VEGFR2)
CC[C@H](C)[C@H](NC(=O)Oc1ccc(CCCOc2ccc([P+](CCCc3ccc(OCCCCOc4c5ccoc5cc5oc(=O)ccc45)cc3)(c3ccccc3)c3ccccc3)cc2)cc1)C(=O)N[C@H](CCCNC(=N)N)C(=O)N1CCC[C@@H]1C(=O)N1CCC[C@@H]1C(=O)N[C@H](CC(C)C)C(=O)N[C@H](Cc1c[nH]c2ccccc12)C(=O)N[C@@H](C(=O)N[C@H](C)C(=O)O)[C@H](C)O [PAPTPL-I-DA7R] (HELM PEPTIDE1{[O=C(Oc1ccc(CCCOc2ccc([P+](CCCc3ccc(OCCCCOc4c5ccoc5cc5oc(=O)ccc45)cc3)(c3ccccc3)c3ccccc3)cc2)cc1)[*:2]].I.[dR].[dP].[dP].[dL].[dW].[dT].[dA]}$$$$V2.0),about 30%,did not induce any hemolysis,roughly twice as much,,
CC(C)C[C@@H](NC(=O)[C@H]1CCCN1C(=O)[C@H]1CCCN1C(=O)[C@@H](CCCNC(=N)N)NC(=O)CCCc1cn(CCOCCOCCOCCOCCNC(=O)Oc2ccc(CCCOc3ccc([P+](CCCc4ccc(OCCCCOc5c6ccoc6cc6oc(=O)ccc56)cc4)(c4ccccc4)c4ccccc4)cc3)cc2)nn1)C(=O)N[C@H](Cc1c[nH]c2ccccc12)C(=O)N[C@@H](C(=O)N[C@H](C)C(=O)O)[C@H](C)O [PAPTPL-Teg-DA7R],about 50%,increase in the ability of the derivative (PAPTPL-Teg-DA7R) to lyse erythrocytes,,,
CC(C)C[C@@H]1NC(=O)[C@H](Cc2c[nH]c3ccccc23)NC(=O)[C@H]([C@@H](C)O)NC(=O)[C@H](C)NC(=O)[C@H](Cc2cn(CCOCCOCCOCCOCCNC(=O)Oc3ccc(CCCOc4ccc([P+](CCCc5ccc(OCCCCOc6c7ccoc7cc7oc(=O)ccc67)cc5)(c5ccccc5)c5ccccc5)cc4)cc3)nn2)NC(=O)[C@H](CCCNC(=N)N)NC(=O)[C@@H]2CCCN2C(=O)[C@@H]2CCCN2C1=O [PAPTPL-Teg-cA7R],about 50%,dramatic increase in the hemolysis,,,
"C#CC[C@@H]1NC(=O)[C@H](CCCNC(=N)N)NC(=O)[C@@H]2CCCN2C(=O)[C@@H]2CCCN2C(=O)[C@H](CC(C)C)NC(=O)[C@H](Cc2c[nH]c3ccccc23)NC(=O)[C@H]([C@@H](C)O)NC(=O)[C@H](C)NC1=O [cA7R] (HELM PEPTIDE1{A.T.W.L.P.P.R.[C#CC[C@H](N[*:1])C(=O)[*:2]]}$PEPTIDE1,PEPTIDE1,1:R1-8:R2$$$V2.0)",,completely ineffective towards erythrocytes,,retain affinity,retain affinity
